Experimental data reported in publication PMC5374546.

Experiments:
[1] = target: Fcε3-4 Fcε3-4 (Homo sapiens) (UniProt P01854); assay: sedimentation equilibrium; settings: cited from earlier work
[2] = target: IgE-Fc (Val224-Lys547, with glycosylation-site double mutation N265Q and N371Q) (human); assay: ITC; 260 uM derCD23 in the syringe titrated into 12.5 uM IgE-Fc dimer in the cell; 25 mM Tris-HCl pH 7.4, 125 mM NaCl, 4 mM CaCl2; 25 °C; iTC200; two-site (2:1) binding model

UniProt P01854, sequence (P01854 209-426): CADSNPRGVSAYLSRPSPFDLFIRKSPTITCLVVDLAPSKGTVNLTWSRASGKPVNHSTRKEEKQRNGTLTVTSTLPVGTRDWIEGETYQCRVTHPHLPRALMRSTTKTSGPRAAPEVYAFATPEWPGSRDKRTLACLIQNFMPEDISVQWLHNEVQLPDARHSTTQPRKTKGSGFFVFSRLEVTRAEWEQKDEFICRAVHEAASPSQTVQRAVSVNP

| KD1 (site 1 of the two-site model) [2] [µM] | KD2 (site 2 of the two-site model) [2] [µM] | dH1 (site 1 of the two-site model) [2] [kcal/mol] | dH2 (site 2 of the two-site model) [2] [kcal/mol] | stoichiometry N (derCD23 per IgE-Fc dimer) [2] | Molecule | Kd [1] [µM] |
| --- | --- | --- | --- | --- | --- | --- |
|  |  |  |  |  | derCD23 derCD23 (from UniProt P06734) | 10 |
| 1.2 | 14.4 | -7.2 | -3.7 | 2 | derCD23 (soluble monomeric lectin-like head domain of human CD23, Ser156-Glu298) (domain or fragment) SGFVCNTCPEKWINFQRKCYYFGKGTKQWVHARYACDDMEGQLVSIHSPEEQDFLTKHASHTGSWIGLRNLDLKGEFIWVDGSHVDYSNWAPGEPTSRSQGEDCVMMRGSGRWNDAFCDRKLGAWVCDRLATCTPPASEGSAE |  |
